The values that follow come from patent US20260250363A1 (AP BIOSCIENCES, published 2026).

By Kd is commonly meant the equilibrium constant for the complex coming apart. As a reminder, the IC50 is the midpoint of a concentration-inhibition curve. As usually defined, the EC50 is the concentration needed to bring the measured effect to its halfway point. Lower therefore signals greater potency.

Experiment [1] deals with T1, SARS-CoV-2 B.1.1.529 Spike Protein (Omicron) (SARS-CoV-2, UniProt P0DTC2 16-1211). As to the kind of experiment: BLI (ForteBio), mAb on AHC sensor, spike in solution. (In BLI a coated tip is dipped into the sample, and binding shifts an interference pattern.)
Experiment [2] addresses T2, Recombinant SARS-CoV-2 BA.2 Spike (GCN4-IZ) His Protein, CF (R&D, 11109-CV) (SARS-CoV-2, UniProt P0DTC2 16-1211). The experiment is described as above.
In experiment [3] the target is T3, SARS-CoV-2 Spike Trimer, His Tag (BA.4/Omicron) (MALS verified) (AcroBiosystems, SPN-C5229) (SARS-CoV-2, UniProt P0DTC2 16-1213). The description is as above.
For experiment [4], the target named is T4, SARS-CoV-2 Spike Trimer, His Tag (BA.5/Omicron) (MALS verified) (AcroBiosystems, SPN-C522e) (SARS-CoV-2, UniProt P0DTC2 16-1213). Described as above.
Experiment [5] addresses SARS-CoV-2 Spike Protein, wild type (R&D, Cat. #10549-CV) (SARS-CoV-2, UniProt P0DTC2 16-1211). As to the kind of experiment: competition ELISA: blocks biotin-ACE2 binding to coated spike.
The target in experiment [6] is SARS-CoV-2 C.37 Spike His Protein (R&D, Cat. #10887-CV) (SARS-CoV-2, UniProt P0DTC2 16-1211). The experiment is described as above.
Experiment [7] addresses SARS-CoV-2 B.1.617.2 Spike Protein (R&D, Cat. #10878-CV) (SARS-CoV-2, UniProt P0DTC2 16-1211). Described as above.
Experiment [8] addresses SARS-CoV-2 AY.1 Spike Protein (R&D, Cat. #10922-CV) (SARS-CoV-2, UniProt P0DTC2 16-1211). The description is as above.
Experiment [9] concerns the target T1, SARS-CoV-2 B.1.1.529 Spike Protein …. The experiment is described as above.
For experiment [10] the target is unchanged. The description is as above. The source holds these as a separate data set.
In experiment [11] the target is T2, Recombinant SARS-CoV-2 BA.2 Spike …. Described as above.
Experiment [12] concerns the target T3, SARS-CoV-2 Spike Trimer, His Tag …. The description is as above.
In experiment [13] the target is T4, SARS-CoV-2 Spike Trimer, His Tag …. The description is as above.
For experiment [14], the target named is SARS-CoV-2 AY.1 Spike Protein (R&D, Cat. #10922-CV) (SARS-CoV-2, UniProt P0DTC2 16-1211).
The target of experiment [15] is SARS-CoV-2 Spike Protein, wild type (R&D, Cat. #10549-CV) (SARS-CoV-2, UniProt P0DTC2 16-1211). As to the kind of experiment: direct ELISA on coated spike; no plateau within the range shown. Background: ELISA stands for enzyme-linked immunosorbent assay.
In experiment [16] the target is SARS-CoV-2 C.37 Spike His Protein (R&D, Cat. #10887-CV) (SARS-CoV-2, UniProt P0DTC2 16-1211). The experiment is described as above.

Where two headings read alike, the source gives them in different places.

B1: anti-SARS-CoV-2 antibody clone R4-21 (antibody, V domains shown)
VH: QVQLVQSGAEVKKPGESLKISCKGSGYSFTSYWIGWVRQMPGKGLEWMGIIYPGDSDTRYSPSFQGQVTISADKSISTAYLQWSSLKASDTAMYYCATQTPYYDSSDYYLGDAFDIWGQGTMVTVSS
VL: QSALTQPASVSGSPGQSITISCTGTSSDVGGYNYVSWYQQHPGKAPKLIIYDVRNRPSGVSNRFSGSKSGNTASLTISGLQAEDEADYYCGSYTSSSTLGFGGGTKLTVLG
Consider B1, for which the Kd is 2.58 nM in [1], 2.32 nM in experiment [2], 1.62 nM in experiment [3] and 2.63 nM in experiment [4].

B2: Anti-SARS-CoV-2 #R4-11#R4-1a-10 scFv bsAb (bispecific antibody)
heavy: not shown
light: QSVLTQPPSVSEAPGQRVTISCSGSSSNIANNAVNWYQQLPGQAPKLLIFYDDLLPSWVSDRFSGSKSGTSASLAISGLQSEDEADYYCAAWDDSLNGPVFGGGTKLTVLRQPVAAPSVTLFPPSSEELQANKATLVCLISDFYPGAVTVAWKADSSPVKAGVETTTPSKQSNNKYAASSYLSLTPEQWKSHKSYSCQVTHEGSTVEKTVAPAECS
For B2, the IC50 in [5] turned out to be 2.73 nM; in experiment [6], 1.97 nM; in experiment [7], 1.45 nM; in experiment [8], 0.715 nM; in experiment [9], 2.32 nM.

B3: Anti-SARS-CoV-2 #R4-1a-10-#R4-11 scFv bsAb (bispecific antibody)
heavy: not shown
light: QSVLTQPSSVSAAPWQRVTISCSGSDSNIGNNPVNWYQHVPGKAPTLLIYYDNFLASKISDRFSGSKSGTSASLAISGLQSDDEADYYCASWDDSLNGVVFGGGTKLTVLRQPKAAPSVTLFPPSSEELQANKATLVCLISDFYPGAVTVAWKADSSPVKAGVETTTPSKQSNNKYAASSYLSLTPEQWKSHRSYSCQVTHEGSTVEKTVAPTECS
As to B3, the IC50 in experiment [5] was found to be 0.857 nM; in [6] it was 0.897 nM; in experiment [7] it was 0.563 nM; in [8], 0.349 nM; in experiment [9] it was 1.06 nM.

B4: Anti-SARS-CoV-2 #R4-21-# R4-1a-10 scFv bsAb (bispecific antibody)
heavy: not shown
light: QSALTQPASVSGSPGQSITISCTGTSSDVGGYNYVSWYQQHPGKAPKLIIYDVRNRPSGVSNRFSGSKSGNTASLTISGLQAEDEADYYCGSYTSSSTLGFGGGTKLTVLGQPKAAPSVTLFPPSSEELQANKATLVCLISDFYPGAVTVAWKADSSPVKAGVETTTPSKQSNNKYAASSYLSLTPEQWKSHKSYSCQVTHEGSTVEKTVAPTECS
For the molecule B4, the IC50 turned out to be 1.08 nM in [10], 0.246 nM in experiment [11], 1.04 nM in experiment [12] and 1.37 nM in [13].

B5: Anti-SARS-CoV-2 #R4-21-# R4-1a-51 scFv bsAb (bispecific antibody)
heavy: not shown
light: B4 light
Consider B5, for which the IC50 in [10] was found to be 1.01 nM; in [11], 0.354 nM; in experiment [12], 1.14 nM; in [13], 1.65 nM.

B6: Anti-SARS-CoV-2 #R3-1a-1-# R4-1a-10 scFv bsAb (bispecific antibody)
heavy: not shown
light: NFMLTQPHSVSESPGKTVTISCTRSSGSIASKYVQWYQQRPGNSPTTVIYEDDQRPSGVPDRFSASIDSSANTASLTISGLKPEDEADYYCQSYDDNTAVFGGGTHLTVLGQPKAAPSVTLFPPSSEELQANKATLVCLVSDFYPGAVTVAWKADGSPVKVGVETTKPSKQSNNKYAASSYLSLTPEQWKSHRSYSCRVTHEGSTVEKTVAPAECS
Take B6: the IC50 was determined as 1.83 nM in experiment [10], 0.803 nM in [11], 3.51 nM in experiment [12] and 4.97 nM in experiment [13].

B7: R3-1a-1/R4-1a-51 scFv (bispecific antibody)
heavy chain with C-terminal scFv: not shown
light chain: B6 light
As for B7, the IC50 came out at 5.85 nM in [10], 3.31 nM in experiment [11], 7.74 nM in experiment [12] and 11.1 nM in experiment [13].

B8: R4-7 (antibody, V domains shown)
VH: QVQLQESGGGLVQPGGSLRLSCAVSGMTLDYYAIAWFRQAPGKEREGVSRISSSDGSTSYADSVKGRFTISRDNAKNTVYLQMNSLKPEDTGVYYCAASPLTYYSGTYYFPGEYDYWGQGTQVTVSS
Consider B8, for which the EC50 was 252000 nM in experiment [14], 20.4 nM in [15] and 13.3 nM in experiment [16].
